In article PMC5052650 one finds stoichiometry N data, which are given here for one substance.

The experiment concerns the target ARTD2 N+WGR fragment (human). Description: SAXS; proteins without DNA; measured without chromatography at three different concentrations; MW from Porod volume divided by 1.7.

Chain of ARTD2 N+WGR fragment (domain or fragment) (Q9UGN5 99-206): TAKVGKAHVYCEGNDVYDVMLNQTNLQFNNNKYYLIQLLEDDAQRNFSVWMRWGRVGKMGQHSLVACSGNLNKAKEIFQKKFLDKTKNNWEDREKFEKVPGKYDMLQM

As for “ARTD2 N+WGR fragment (domain or fragment)”, the stoichiometry N (commonly the number of molecules, sites or subunits per partner or assembly) was 2.
